Columns and labels:
Assay in all cases: cell-based or functional assay
[1] = molecular target: SARS-CoV-2 spike protein G446V (SARS-CoV-2, UniProt P0DTC2 14-1273)
[2] = molecular target: SARS-CoV-2 spike protein A222V (SARS-CoV-2, UniProt P0DTC2 14-1273)
[3] = molecular target: SARS-CoV-2 spike protein G476S (SARS-CoV-2, UniProt P0DTC2 14-1273)

Row | Binder | VSV Pseudotype Neutralization Assay IC50 [1] [ng/mL] | VSV Pseudotype Neutralization Assay IC50 [2] [ng/mL] | VSV Pseudotype Neutralization Assay IC50 [3] [ng/mL]
1 | vS07_23E04 (designed binder, also called R3c) MRGSHHHHHHGSDLGKKLLQAARAGQLDEVRELLKAGADVNAKDQEGITPLHVAAHQGHLEIVEVLLKAGADVNAKDVWGRTPLHLAAWRGHLEIVEVLLKAGADVNAKDHAGATPLHAAALSGHLEIVEVLLKAGADVNAQDKSGKTPADLAARAGHQDIAEVLQKAA | 2.3 | 19.5 | 29
2 | vS07_29B10 (designed binder, also called R3b) MRGSHHHHHHGSDLGKKLLQAARAGQLDEVRELLKAGADVNAKDREGITPLHLAAQHGHLEIVEVLLKAGADVNAKDVWGRTPLHLAAWQGHLEIVEVLLKAGADVNAKDLAGATPLHVAALYGHLEIVEVLLKAGADVNAQDKSGKTPADLAARAGHQDIAEVLQKAA | 0.7 | 3.3 | 2.3
3 | vS07_12C06 (designed binder, also called R1b; Rb1) MRGSHHHHHHGSDLGKKLLQAARAGQLDEVRELLKAGADVNAKDREGKTPLHVAAQEGHLEIVEVLLKAGADVNAKDVWGRTPLHLAAWIGHLEIVEVLLKAGADVNAKDVSGATPLHAAALHGHLEIVEVLLNAGADVNAQDKSGKTPADLAARAGHQDIAEVLQKAA | 1.8 | 4.6 | 3.7

Source: patent US20220235103A1 (Molecular Partners, published 2022)
